For 6 sequences, Kd and IC50 results are on record in the Immune Epitope Database (IEDB).

For one experiment, the target named is HLA-A*02:50. In words: IEDB peptide-MHC binding, purified MHC/competitive/fluorescence; filed as Kd, often an IC50 or EC50 that approximates it; ≥ and ≤ were set here for values at or beyond the usual limits of such assays. Conditions: source organism: Vibrio vulnificus YJ016.
In the next experiment the target is HLA-B*18:01. In words: IEDB peptide-MHC binding, purified MHC/direct/fluorescence; filed as Kd, often an IC50 or EC50 that approximates it; ≥ and ≤ were set here for values at or beyond the usual limits of such assays. Conditions: source organism: Vibrio vulnificus.
The target in another experiment is HLA-B*46:01. The description is as above. Conditions: source organism: Vibrio vulnificus.
Another experiment addresses HLA-A*31:01. The description is as above. Conditions: source organism: Vibrio vulnificus.
Another experiment deals with HLA-B*08:01. The experiment is described as above. Conditions: source organism: Vibrio vulnificus CMCP6.
In experiment [1] the target is HLA-A*02:01. Described as above. Conditions: source organism: Vibrio vulnificus.
In a further experiment the target is HLA-A*02:12. Described as above. Conditions: source organism: Vibrio vulnificus CMCP6.
The target of experiment [2] is HLA-A*01:01. The description is as above. Conditions: source organism: Vibrio vulnificus.
In experiment [3] the target is HLA-A*02:03. The description is as above. Conditions: source organism: Vibrio vulnificus CMCP6.
Another experiment deals with HLA-B*44:02. The experiment is described as above. Conditions: source organism: Vibrio vulnificus.
A further experiment deals with HLA-B*08:02. The experiment is described as above. Conditions: source organism: Vibrio vulnificus CMCP6.
In another experiment the target is HLA-A*02:19. The experiment is described as above. Conditions: source organism: Vibrio vulnificus CMCP6.
For experiment [4], the target named is HLA-B*58:01. Described as above. Conditions: source organism: Vibrio vulnificus.
In a further experiment the target is HLA-A*02:11. The experiment is described as above. Conditions: source organism: Vibrio vulnificus CMCP6.
For the next experiment, the target named is HLA-B*07:02. The experiment is described as above. Conditions: source organism: Vibrio vulnificus.
Another experiment concerns the target HLA-B*40:01. Described as above. Conditions: source organism: Vibrio vulnificus.
In another experiment the target is HLA-A*03:01. The experiment is described as above. Conditions: source organism: Vibrio vulnificus.
Experiment [5] addresses HLA-A*02:06. The description is as above. Conditions: source organism: Vibrio vulnificus CMCP6.
The target of another experiment is HLA-A*69:01. The experiment is described as above. Conditions: source organism: Vibrio vulnificus.
The next experiment deals with HLA-A*24:02. The description is as above. Conditions: source organism: Vibrio vulnificus.
The next experiment addresses HLA-A*11:01. The description is as above. Conditions: source organism: Vibrio vulnificus.
Another experiment addresses HLA-B*15:01. The experiment is described as above. Conditions: source organism: Vibrio vulnificus.
Experiment [6] deals with HLA-B*27:05. The description is as above. Conditions: source organism: Vibrio vulnificus.
A further experiment concerns the target HLA-C*14:02. Described as above. Conditions: source organism: Variola virus.
In a further experiment the target is HLA-B*35:01. In words: IEDB peptide-MHC binding, purified MHC/competitive/fluorescence; filed as Kd, often an IC50 or EC50 that approximates it; ≥ and ≤ were set here for values at or beyond the usual limits of such assays. Conditions: source organism: Shigella flexneri 2a str. 2457T.
Experiment [7] addresses HLA-A*01:01. The description is as above. Conditions: source organism: Shigella flexneri 2a str. 2457T.
The target of experiment [8] is HLA-B*58:01. The experiment is described as above. Conditions: source organism: Shigella flexneri 2a str. 2457T.
In experiment [9] the target is HLA-C*04:01. The experiment is described as follows: IEDB peptide-MHC binding, purified MHC/direct/fluorescence; filed as Kd, often an IC50 or EC50 that approximates it; ≥ and ≤ were set here for values at or beyond the usual limits of such assays. Conditions: source organism: Shigella flexneri 2a str. 2457T.
Another experiment concerns the target HLA-C*08:02. The experiment is described as above. Conditions: source organism: Shigella flexneri 2a str. 2457T.
Experiment [10] addresses HLA-A*02:01. The experiment is described as follows: IEDB peptide-MHC binding, purified MHC/competitive/radioactivity; ≥ and ≤ were set here for values at or beyond the usual limits of such assays. Conditions: source organism: Hepatitis C virus (isolate H77).
Experiment [11] addresses HLA-A*02:03. The experiment is described as above. Conditions: source organism: Hepatitis C virus (isolate H77).
In a further experiment the target is HLA-A*02:02. The description is as above. Conditions: source organism: Hepatitis C virus (isolate H77).
The target of experiment [12] is HLA-A*02:06. The experiment is described as above. Conditions: source organism: Hepatitis C virus (isolate H77).
The target in experiment [13] is HLA-C*04:01. The experiment is described as follows: IEDB peptide-MHC binding, purified MHC/competitive/fluorescence; filed as Kd, often an IC50 or EC50 that approximates it; ≥ and ≤ were set here for values at or beyond the usual limits of such assays. Conditions: source organism: Acetivibrio thermocellus ATCC 27405.
The target of another experiment is HLA-B*15:42. Described as above. Conditions: source organism: Acetivibrio thermocellus ATCC 27405.
The target in another experiment is HLA-B*83:01. Described as above. Conditions: source organism: Acetivibrio thermocellus ATCC 27405.
In the next experiment the target is HLA-B*45:06. The experiment is described as above. Conditions: source organism: Acetivibrio thermocellus ATCC 27405.
The target in experiment [14] is HLA-B*27:05. The experiment is described as follows: IEDB peptide-MHC binding, cellular MHC/competitive/radioactivity; ≥ and ≤ were set here for values at or beyond the usual limits of such assays. Conditions: source organism: Hepacivirus hominis.

Turning to GLKELGDWV, the Kd (in general, the equilibrium constant for the complex coming apart) is at most 0.1 nM with HLA-A*02:50; at least 20000 nM with HLA-B*18:01; at least 20000 nM in the experiment with HLA-B*46:01; at least 20000 nM in the experiment with HLA-A*31:01; at least 20000 nM with HLA-B*08:01; 637 nM with HLA-A*02:01 [1]. The Kd in the experiment with HLA-A*02:12 was 120 nM; with HLA-A*01:01 [2], at least 20000 nM; with HLA-A*02:03 [3], 2 nM; with HLA-B*44:02, at least 20000 nM; with HLA-B*08:02, at least 20000 nM; with HLA-A*02:19, at least 20000 nM. Besides, the Kd with HLA-B*58:01 [4] is at least 20000 nM; in the experiment with HLA-A*02:11, 9 nM; in the experiment with HLA-B*07:02, at least 20000 nM; in the experiment with HLA-B*40:01 it was at least 20000 nM; in the experiment with HLA-A*03:01, at least 20000 nM; with HLA-A*02:06 [5] it was 145 nM. Moreover, the dissociation constant Kd is at least 5000 nM with HLA-A*69:01; at least 20000 nM in the experiment with HLA-A*24:02; at least 20000 nM with HLA-A*11:01; at least 20000 nM with HLA-B*15:01; at least 20000 nM in the experiment with HLA-B*27:05 [6].
VIYEAVIHL yielded a dissociation constant (Kd) with HLA-C*14:02 of 195 nM.
Turning to MSPDNALIY, the Kd in the experiment with HLA-B*35:01 was 7.2 nM; in the experiment with HLA-A*01:01 [7], 89.9 nM; in the experiment with HLA-B*58:01 [8], 457 nM; in the experiment with HLA-C*04:01 [9] it was at least 20000 nM; with HLA-C*08:02, at least 20000 nM.
KLVGLGLNAV: the half-maximal inhibitory concentration (IC50) (commonly the concentration at which inhibition is half-maximal) with HLA-A*02:01 [10] amounted to 17 nM; with HLA-A*02:03 [11] it was 8.2 nM; with HLA-A*02:02, 14 nM; with HLA-A*02:06 [12], 9 nM.
TVIDVNTGK: the Kd with HLA-C*04:01 [13], with HLA-B*15:42, with HLA-B*83:01 and with HLA-B*45:06 was at least 5000 nM each time.
Take ARHTPVNSW: the concentration for half-maximal inhibition (IC50) in the experiment with HLA-B*27:05 [14] was 338 nM.
